Test results taken from PMC3792999, “Identification and Characterization of a Cold-Active Phthalate Esters Hydrolase by Screening a Metagenomic Library Derived from Biofilms of a Wastewater Treatment Plant” (PLoS ONE, 2013).

Columns and labels:
Assay in all cases: purified protein
[1] = system: CCCOC(=O)c1ccccc1C(=O)OCCC; conditions: pH 7.5; 10.0 °C
[2] = system: CCCCOC(=O)c1ccccc1C(=O)OCCCC
[3] = system: CCCCCOC(=O)c1ccccc1C(=O)OCCCCC; conditions: pH 7.5; 10.0 °C
[4] = 10 mM sodium phosphate pH 7.5, 10°C

Substance	Km [1]	Vmax [1]	kcat/Km [1]	Km ([2]; pH 7.5, 10.0 °C)	Vmax ([2]; pH 7.5, 10.0 °C)	kcat/Km ([2]; pH 7.5, 10.0 °C)	Km [3]	Vmax [3]	kcat/Km [3]	Km [2, 4]	kcat [2, 4]
DphB (uncultured bacterium)	271 ± 12 µM	46.4 µmol/min/mg	166000 ± 5000 M⁻¹ s⁻¹	561 ± 16 µM	40.7 µmol/min/mg	70000 ± 2000 M⁻¹ s⁻¹	378 ± 18 µM	45.9 µmol/min/mg	118000 ± 4000 M⁻¹ s⁻¹		
DphB (uncultured bacterium; D255A)										20300 ± 1170 µM	6.95 ± 1.42 s⁻¹
